Laboratory results: article PMC11500499, “Molecular dissection of the chromosome partitioning protein RocS and regulation by phosphorylation”

Target: T1, RocS WT-ΔAH (Streptococcus pneumoniae R6, UniProt Q8DQ15 1-152)
T1 sequence: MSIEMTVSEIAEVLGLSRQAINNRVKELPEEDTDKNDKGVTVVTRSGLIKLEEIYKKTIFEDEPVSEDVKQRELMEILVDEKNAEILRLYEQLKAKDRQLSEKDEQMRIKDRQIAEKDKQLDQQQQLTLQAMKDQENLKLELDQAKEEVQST
Assay: MST; MST: 25 mM Tris/HCl pH 7.5, 100 mM NaCl, 5% glycerol, 0.025% Tween-20, 25 C, 10 nM DNA probe; EMSA: 25 mM Tris/HCl pH 7.5, 100 mM NaCl, 5% glycerol, 100 ng DNA
Details: protein: recombinant; tags: C-terminal 6xHis, removed with TEV protease; label: 5' Cy5 on strand 1; blunt

B1: dnaC_Cy5 (dsDNA)
DNA 1: GTCAACCAAGCTTACGAAGCGTCACAACCAGCTGATGAAATTATTGCTCA
DNA 2: TGAGCAATAATTTCATCAGCTGGTTGTGACGCTTCGTAAGCTTGGTTGAC
- Kd: 34 µM
